Reference: patent US20040197306A1 (SCHERING, published 2004)

Tests used:
Assay in all cases: FACS, FLAG-tagged ligand supernatant on Baf/3 cells with chimeric receptor, anti-FLAG M2 detection
[1] = molecular target: T1, mouse IL-17RA extracellular domain fused to transmembrane and intracellular domains of murine GCSFR, on Baf/3 … (mouse, UniProt Q60943 32-322; P40223 627-837, limits assumed)
T1 construct: extracellular domain;domain: transmembrane and intracellular domains; Chimeric receptor stably expressed on Baf/3 cells; also called MuIL-17RX-MuGCSFR (X = A)
Procedure: (§1) FACS analysis was used to determine specific binding of the various ligands to the various receptors. Baf/3 or Baf/3 mouse IL17RX-mouse GCSFR cells were incubated with ligand containing cell supernatants for one hour on ice. The cells were then washed once in FACS buffer and resuspended in 10 μg/ml ANTI-FLAG® M2 antibody (Sigma, St. Louis, Mo.) for one hour on ice. Cells were washed once in FACS buffer and resuspended in 10 μl/ml anti-mouse IgG-PE (Jackson ImmunoResearch, West Grove, Pa.) for 30 minutes on ice. Cells were washed once in FACS buffer and resuspended in FACS buffer and 1 μl/ml propidium iodide (Roche Applied Science, Indianapolis, Ind.) and analyzed on a FACS Calibur (Becton Dickinson, San Jose, Calif.). The chimeric receptor cell based assay was used to visualize the binding of each of the IL-17 family ligands to the receptors by FACS.

[2] = molecular target: T2, mouse IL-17RC (DCRS7) extracellular domain fused to transmembrane and intracellular domains of murine GCSFR, … (mouse, UniProt P40223 627-837, limits assumed)
T2 construct: domain: transmembrane and intracellular domains; Chimeric receptor stably expressed on Baf/3 cells; also called MuIL-17RX-MuGCSFR (X = C)
T2 sequence: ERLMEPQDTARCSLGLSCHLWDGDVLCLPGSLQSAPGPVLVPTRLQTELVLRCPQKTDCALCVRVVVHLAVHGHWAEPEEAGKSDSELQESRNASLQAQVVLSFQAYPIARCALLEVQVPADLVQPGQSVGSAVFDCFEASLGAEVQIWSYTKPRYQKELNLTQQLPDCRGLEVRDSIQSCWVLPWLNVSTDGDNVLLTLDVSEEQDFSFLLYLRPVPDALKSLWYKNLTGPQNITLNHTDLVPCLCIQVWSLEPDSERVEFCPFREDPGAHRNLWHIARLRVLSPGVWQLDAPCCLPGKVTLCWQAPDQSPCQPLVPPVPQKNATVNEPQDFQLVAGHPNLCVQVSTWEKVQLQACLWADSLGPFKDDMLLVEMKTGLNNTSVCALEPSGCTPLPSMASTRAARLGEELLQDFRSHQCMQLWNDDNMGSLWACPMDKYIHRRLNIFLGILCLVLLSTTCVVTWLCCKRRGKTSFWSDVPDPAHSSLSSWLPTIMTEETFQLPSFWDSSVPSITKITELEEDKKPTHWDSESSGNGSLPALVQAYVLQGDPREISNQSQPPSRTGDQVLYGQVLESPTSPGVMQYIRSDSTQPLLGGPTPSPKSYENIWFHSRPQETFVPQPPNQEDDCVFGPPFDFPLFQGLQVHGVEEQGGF
Procedure: as §1

[3] = molecular target: T3, mouse IL-17RD (DCRS8) extracellular domain fused to transmembrane and intracellular domains of murine GCSFR, … (mouse, UniProt Q8JZL1 17-299; P40223 627-837, limits assumed)
T3 construct: extracellular domain;domain: transmembrane and intracellular domains; Chimeric receptor stably expressed on Baf/3 cells; also called MuIL-17RX-MuGCSFR (X = D)
T3 sequence (looked up): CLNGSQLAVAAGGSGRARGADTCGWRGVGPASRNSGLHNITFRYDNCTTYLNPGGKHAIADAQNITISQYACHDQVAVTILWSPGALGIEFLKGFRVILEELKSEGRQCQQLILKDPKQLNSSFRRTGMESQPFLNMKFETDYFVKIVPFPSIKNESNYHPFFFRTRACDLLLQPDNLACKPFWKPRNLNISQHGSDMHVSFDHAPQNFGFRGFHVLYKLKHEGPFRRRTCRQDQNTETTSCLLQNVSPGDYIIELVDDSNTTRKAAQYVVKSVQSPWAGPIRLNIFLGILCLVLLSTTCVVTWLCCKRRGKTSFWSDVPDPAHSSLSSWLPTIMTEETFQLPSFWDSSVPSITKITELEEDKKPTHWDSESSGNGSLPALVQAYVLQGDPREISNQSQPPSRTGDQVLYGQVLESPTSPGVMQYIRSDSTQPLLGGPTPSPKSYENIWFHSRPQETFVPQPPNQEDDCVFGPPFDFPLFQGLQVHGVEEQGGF
Procedure: as §1

Measured: binding result

B1: FLAG-tagged IL-17C (ligand)
chain: HHDPSLRGHPHSHGTPHCYSAEELPLGQAPPHLLARGAKWGQALPVALVSSLEAASHRGRHERPSATTQCPVLRPEEVLEADTHQRSISPWRYRVDTDEDRYPQKLAFAECLCRGCIDARTGRETAALNSVRLLQSLLVLRRRPCSRDGSGLPTPGAFAFHTEFIHVPVGCTCVLPRSV
notes: Used as supernatant of transfected 293T cells; also called IL-71; not shown: FLAG peptide tag at the N-terminus (after the pre-protrypsin leader)
no binding: all assays above
